Reference: paper PMC6478803

Molecular target: FleQ (Pseudomonas syringae pv. tomato DC3000) (UniProt Q884Y2)
Assay: EMSA
Conditions: STAD: 25 mM Tris-acetate pH 8.0, 8 mM Mg-acetate, 10 mM KCl, 3.5% PEG-8000, 1 mM DTT, 10 ug/ml poly(dI-dC), 200 ug/ml BSA; 20 nM probe (Results: 1 nM); 30 min …

Sequence: GTTCGATTAATCCAGTGAGCCTTTCGGTGCAGTTGGTCTGCGCCAACGCCACTGTCGGCGCGCCGCTGAATCTGGGTGACCTCAAGGCCGGTGAACGCTATAGCATCTTGCTGGTGCCGTCCGCCACAGGCCCGCGCCTGTTGTCGGCCACGGACACACTGTCCAACTGATCGGGTTCTGTCGTCGTTATGGTATTCGCCTCGCTTGAGTTTCTGATGGTGTTCCTGCCGGCTTTTTTGCTGGCCTATGCCGCAAGCCCGGCGGCGTGGCGCAACGTCGTTCTGTTGATCGGCAGTTGG (double strand) [wssH (wssH1)]
- binding: no binding
